We go through one substance from article PMC10067955.

The target in the assay is NcsA from Methanococcus maripaludis (Methanococcus maripaludis). Briefly: SEC; apo-MmNcsA on a gel filtration column calibrated with protein standards.

In general, stoichiometry N refers to the number of molecules, sites or subunits per partner or assembly.

“NcsA from Methanococcus maripaludis (enzyme)” came in with a stoichiometry N of 2.
